Three proteins from article PMC10538386 (Bioconjugate chemistry, 2023) can be followed below.

Where a chain is given by its changes, count along the chain named. In names and notes the source's numbering stands.

Data set [1] concerns the molecule itself. In words: transmission electron microscopy.
The data set “SEC” concerns the molecule itself. In words: SEC.

B1: PhMV Cys1+2 (A31C S137C) coat protein, assembled as virus-like particles (natural protein, Physalis mottle virus)
chain: MDSSEVVKVKQASIPAPGSILSQPNTEQSPCIVLPFQFEATTFGTAETAAQVSLQTADPITKLTAPYRHAQIVECKAILTPTDLAVSNPLTVYLAWVPANSPATPTQILRVYGGQSFVLGGAISAAKTIEVPLNLDCVNRMLKDSVTYTDTPKLLAYSRAPTNPSKIPTASIQISGRIRLSKPMLIAN
In the case of B1, in data set [1], the binding result is given as “binds”.

B2: PhMV Cys2 (S137C) coat protein, assembled as virus-like particles (natural protein, Physalis mottle virus)
chain: B1 chain with C31A
Take B2: the binding result in “SEC” is listed as “binds”.

B3: PhMV Cys1 (A31C) coat protein, assembled as virus-like particles (natural protein, Physalis mottle virus)
chain: B1 chain with C137S
Take B3: the binding result in “SEC” is on record as “binds”.
